In paper PMC6402988:

Molecular target: ADI-15946 (human)
Assay: BLI

EBOV GP cleaved (EBOV GPCL) (from UniProt Q05320 33-650) (domain or fragment)
Kd: < 1 pM | koff: < 1e-07 s⁻¹
